Source: patent US20260274955A1 (JANUX THERAPEUTICS, published 2026)

The binders below were run against Anti-CD28 Fab (SEQ ID NOs: 202, 203) (assay: phage binding ELISA on captured Fab, competitor CD28 antigen;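 further: clonal phage supernatant binding in wells preincubated with CD28 antigen in blocking buffer, detected by HRP-conjugated anti-M13 antibody ELISA, compared with blocking buffer alone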).
Chain of Anti-CD28 Fab (SEQ ID NOs: 202, 203) (VH, as listed by the source, chain 1 of 2): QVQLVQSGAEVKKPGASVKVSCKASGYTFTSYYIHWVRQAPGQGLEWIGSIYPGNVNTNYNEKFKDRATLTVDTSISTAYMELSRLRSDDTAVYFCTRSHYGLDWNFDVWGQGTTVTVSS
Chain of Anti-CD28 Fab (SEQ ID NOs: 202, 203) (VL, as listed by the source, chain 2 of 2): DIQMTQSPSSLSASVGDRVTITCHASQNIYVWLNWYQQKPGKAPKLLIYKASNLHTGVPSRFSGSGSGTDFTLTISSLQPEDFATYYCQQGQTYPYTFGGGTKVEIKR
Experimental: (§1) Clonal phage were harvested as crude supernatants and screened via standard ELISAs. […] Prior to the addition of clonal phage, wells were incubated with blocking buffer and CD28 antigen or blocking buffer alone. Without washing or aspirating, clonal phage supernatants were then added to the wells and incubated for a short time. Wells were then washed followed by detection of bound phage using a horse radish conjugated anti-M13 antibody.

Row | Binder | Anti-CD28 Fab signal in the presence of CD28
1 | YCDGHIEMYMSKCM [Phage-855] | 0.06
2 | YCDGHTPQFRAKCL [Phage-859] | 0.07
3 | YCQGHSELYMSKCL [Phage-858] | 0.08
4 | YCDGHIMPYLDKCL [Phage-862] | 0.05
5 | YCEGHLAVHMSKCL [Phage-854] | 0.06
6 | YCDGHLPRFMVKCL [Phage-839] | 0.07
7 | YCDGHAAMYMSKCL [Phage-870] | 0.07
8 | YCEGHMSEYMRKCL [Phage-841] | 0.1
9 | YCEGHIGDYIAKCL [Phage-857] | 0.36
10 | YCDGHHLEYIDKCL [Phage-838] | 0.06
11 | YCEGHLQEYMGKCL [Phage-860] | 0.25
12 | YCVGHLPLYMPNCL [Phage-842] | 0.11
13 | YCEGHAAVYMHKCL [Phage-846] | 0.09
14 | YCAGHLPQYVSKCL [Phage-836] | 0.06
15 | YCEGHFGMYMSKCL [Phage-833] | 0.07
16 | YCDGHLETYMQKCL [Phage-865] | 0.08
17 | YCQGHALQYLQKCL [Phage-835] | 0.08
18 | YCEGHSRQYMEKCM [Phage-852] | 0.33
19 | YCAGHSVQYMYKCL [Phage-832] | 0.06

Row | Binder | Anti-CD28 Fab signal in the presence of CD28
20 | YCEGHLPWYMSKCL [Phage-837] | 0.09
21 | YCAGHTTEYIVKCL [Phage-868] | 0.05
22 | YCEGHLDEYLQKCM [Phage-867] | 0.08
23 | YCDGHAWWYMEKCL [Phage-849] | 0.06
24 | YCQGHAPWYMVKCL [Phage-840] | 0.08
25 | YCEGHVELYRQKCL [Phage-864] | 0.06
26 | YCSGHLPMYMAKCL [Phage-853] | 0.13
27 | YCMGHSAEYMGKCL [Phage-848] | 0.06
28 | YCEGHAQQYMLKCL [Phage-831] | 0.05
29 | YCEGHAQMYMLKCL [Phage-851] | 0.06
30 | YCDGHVTEYMAKCL [Phage-861] | 0.07
31 | YCAGHMPQYMSKCL [Phage-834] | 0.05
32 | YCDGHAAWYLQKCL [Phage-850] | 0.07
33 | YCEGHKKEYMLKCL [Phage-863] | 0.08
34 | YCEGHLPQYLAKCY [Phage-844] | 0.08
35 | YCDGHEPQYMTKCL [Phage-843] | 0.1
36 | YCDGHMDAYMSKCL [Phage-847] | 0.06
37 | YCEGHVPQYMGKCL [Phage-869] | 0.08
38 | YCQGHLPIYIQKCL [Phage-866] | 0.07

These binders were tested against Anti-CD28 Fab (SEQ ID NOs: 202, 203) (assay: phage binding ELISA on captured Fab;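 further: clonal phage supernatants added briefly to wells pre-incubated with CD28 antigen or with blocking buffer only, then washed, bound phage read by ELISA using HRP-coupled anti-M13 antibody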).
Experimental: as §1

Row | Binder | Anti-CD28 Fab (SEQ ID NOs: 202, 203) signal
39 | YCDGHIEMYMSKCM [Phage-855] | 0.61
40 | YCDGHTPQFRAKCL [Phage-859] | 0.59
41 | YCQGHSELYMSKCL [Phage-858] | 0.6
42 | YCDGHIMPYLDKCL [Phage-862] | 0.57
43 | YCEGHLAVHMSKCL [Phage-854] | 0.62
44 | YCDGHLPRFMVKCL [Phage-839] | 0.69
45 | YCDGHAAMYMSKCL [Phage-870] | 0.5
46 | YCEGHMSEYMRKCL [Phage-841] | 0.69
47 | YCEGHIGDYIAKCL [Phage-857] | 0.61
48 | YCDGHHLEYIDKCL [Phage-838] | 0.69
49 | YCEGHLQEYMGKCL [Phage-860] | 0.58
50 | YCVGHLPLYMPNCL [Phage-842] | 0.68
51 | YCEGHAAVYMHKCL [Phage-846] | 0.67
52 | YCAGHLPQYVSKCL [Phage-836] | 0.7
53 | YCEGHFGMYMSKCL [Phage-833] | 0.73
54 | YCDGHLETYMQKCL [Phage-865] | 0.53
55 | YCQGHALQYLQKCL [Phage-835] | 0.71
56 | YCEGHSRQYMEKCM [Phage-852] | 0.63
57 | YCAGHSVQYMYKCL [Phage-832] | 0.74

Row | Binder | Anti-CD28 Fab (SEQ ID NOs: 202, 203) signal
58 | YCEGHLPWYMSKCL [Phage-837] | 0.69
59 | YCAGHTTEYIVKCL [Phage-868] | 0.5
60 | YCEGHLDEYLQKCM [Phage-867] | 0.51
61 | YCDGHAWWYMEKCL [Phage-849] | 0.64
62 | YCQGHAPWYMVKCL [Phage-840] | 0.69
63 | YCEGHVELYRQKCL [Phage-864] | 0.56
64 | YCSGHLPMYMAKCL [Phage-853] | 0.62
65 | YCMGHSAEYMGKCL [Phage-848] | 0.64
66 | YCEGHAQQYMLKCL [Phage-831] | 0.74
67 | YCEGHAQMYMLKCL [Phage-851] | 0.64
68 | YCDGHVTEYMAKCL [Phage-861] | 0.58
69 | YCAGHMPQYMSKCL [Phage-834] | 0.72
70 | YCDGHAAWYLQKCL [Phage-850] | 0.64
71 | YCEGHKKEYMLKCL [Phage-863] | 0.56
72 | YCEGHLPQYLAKCY [Phage-844] | 0.67
73 | YCDGHEPQYMTKCL [Phage-843] | 0.68
74 | YCDGHMDAYMSKCL [Phage-847] | 0.65
75 | YCEGHVPQYMGKCL [Phage-869] | 0.5
76 | YCQGHLPIYIQKCL [Phage-866] | 0.51
